Assay results as given in PMC5435981.

Target: APOBEC3A E72A (A3A-E72A) (Homo sapiens, UniProt P31941 1-199, E72A)
Assay: ITC

APOBEC3A E72A (A3A-E72A), sequence (P31941 whole entry E72A): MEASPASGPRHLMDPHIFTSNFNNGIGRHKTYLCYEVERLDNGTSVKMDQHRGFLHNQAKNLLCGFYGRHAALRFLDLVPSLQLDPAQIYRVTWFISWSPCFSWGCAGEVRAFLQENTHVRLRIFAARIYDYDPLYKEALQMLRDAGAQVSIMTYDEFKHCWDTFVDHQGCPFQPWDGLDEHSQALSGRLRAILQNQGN

AATTCAAAA (ssDNA) [A2TTCA4]
Kd: 17 ± 6 µM
